The values below are quoted from earlier work in patent publication US20220017621A1, “Combination Therapy for Cancer” (Merck Patent GmbH, priority 2016, published 2022).

This series has as its target TGFβ1 (Homo sapiens, UniProt P01137). To be noted: binding of TGFβ1.

Sequence of TGFβ1 (P01137 279-390 limits assumed, species assumed): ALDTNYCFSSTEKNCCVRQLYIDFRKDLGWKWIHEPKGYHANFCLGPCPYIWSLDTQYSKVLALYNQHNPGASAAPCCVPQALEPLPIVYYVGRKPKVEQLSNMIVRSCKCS

B1: recombinant soluble TGFβRII: recombinant soluble extracellular domain of TGFβRII, from the literature (Lin et al.) (protein, UniProt P37173 23-166, looked up)
extracellular domain: TIPPHVQKSVNNDMIVTDNNGAVKFPQLCKFCDVRFSTCDNQKSCMSNCSITSICEKPQEVCVAVWRKNDENITLETVCHDPKLPYHDFILEDAASPKCIMKEKKKPGETFFMCSCSSDECNDNIIFSEEYNTSNPDLLLVIFQ
modifications: extracellular domain
For the molecule B1, the dissociation constant Kd (usually the concentration at which binding is half-saturated) was 0.2 nM.
